# Measured values from US20240132593A1 (KINETA, published 2024).
# B1: Spiked Peptide 8 (FYKTWYRSSRGEVQT) (peptide)
# peptide: FYKTWYRSSRGEVQT
# notes: synthetic overlapping peptide from human VISTA
# B2: Spiked Peptide 7 (GHDVTFYKTWYRSSR) (peptide)
# peptide: GHDVTFYKTWYRSSR
# notes: as for B1
# B3: Spiked Peptide 15 (GHQAANTSHDLAQRH) (peptide)
# peptide: GHQAANTSHDLAQRH
# notes: as for B1
# B4: Spiked Peptide 11 (CSERRPIRNLTFQDL) (peptide)
# peptide: CSERRPIRNLTFQDL
# notes: as for B1
# B5: Spiked Peptide 14 (HLHHGGHQAANTSHD) (peptide)
# peptide: HLHHGGHQAANTSHD
# notes: as for B1
# B6: Spiked Peptide 22 (LLDSGLYCCLVVEIR) (peptide)
# peptide: LLDSGLYCCLVVEIR
# notes: as for B1
# B7: Spiked Peptide 13 (TFQDLHLHHGGHQAA) (peptide)
# peptide: TFQDLHLHHGGHQAA
# notes: as for B1
# B8: Spiked Peptide 9 (YRSSRGEVQTCSERR) (peptide)
# peptide: YRSSRGEVQTCSERR
# notes: as for B1
# B9: Spiked Peptide 2 (PYSLYVCPEGQNVTL) (peptide)
# peptide: PYSLYVCPEGQNVTL
# notes: as for B1
# B10: Spiked Peptide 10 (GEVQTCSERRPIRNL) (peptide)
# peptide: GEVQTCSERRPIRNL
# notes: as for B1
# B11: Spiked Peptide 16 (NTSHDLAQRHGLESA) (peptide)
# peptide: NTSHDLAQRHGLESA
# notes: as for B1
# B12: Spiked Peptide 23 (LYCCLVVEIRHHHSE) (peptide)
# peptide: LYCCLVVEIRHHHSE
# notes: as for B1
# B13: Spiked Peptide 6 (GPVDKGHDVTFYKTW) (peptide)
# peptide: GPVDKGHDVTFYKTW
# notes: as for B1
# B14: Spiked Peptide 19 (SDHHGNFSITMRNLT) (peptide)
# peptide: SDHHGNFSITMRNLT
# notes: as for B1
# B15: Spiked Peptide 21 (MRNLTLLDSGLYCCL) (peptide)
# peptide: MRNLTLLDSGLYCCL
# notes: as for B1
# B16: Spiked Peptide 3 (VCPEGQNVTLTCRLL) (peptide)
# peptide: VCPEGQNVTLTCRLL
# notes: as for B1
# B17: Spiked Peptide 5 (TCRLLGPVDKGHDVT) (peptide)
# peptide: TCRLLGPVDKGHDVT
# notes: as for B1
# B18: Spiked Peptide 12 (PIRNLTFQDLHLHHG) (peptide)
# peptide: PIRNLTFQDLHLHHG
# notes: as for B1
# B19: Spiked Peptide 18 (GLESASDHHGNFSIT) (peptide)
# peptide: GLESASDHHGNFSIT
# notes: as for B1
# B20: Spiked Peptide 20 (NFSITMRNLTLLDSG) (peptide)
# peptide: NFSITMRNLTLLDSG
# notes: as for B1
# B21: Spiked Peptide 4 (QNVTLTCRLLGPVDK) (peptide)
# peptide: QNVTLTCRLLGPVDK
# notes: as for B1
# B22: Spiked Peptide 17 (LAQRHGLESASDHHG) (peptide)
# peptide: LAQRHGLESASDHHG
# notes: as for B1
# B23: Spiked Peptide 1 (FKVATPYSLYVCPEG) (peptide)
# peptide: FKVATPYSLYVCPEG
# notes: as for B1
# Key:
# VSTB174 [1] = test: peptide blocking ELISA on plate-bound VISTA, peptide 2 ug/mL
# VSTB174, sequence (VH, as listed by the source, chain 1 of 2): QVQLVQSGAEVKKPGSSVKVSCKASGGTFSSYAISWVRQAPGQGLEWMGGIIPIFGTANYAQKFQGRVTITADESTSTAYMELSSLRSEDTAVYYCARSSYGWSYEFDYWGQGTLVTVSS
# VSTB174, sequence (VL, as listed by the source, chain 2 of 2): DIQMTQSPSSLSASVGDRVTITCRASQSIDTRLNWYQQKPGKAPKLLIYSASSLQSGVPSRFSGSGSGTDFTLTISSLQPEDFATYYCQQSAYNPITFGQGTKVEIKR
# Protocol: (§1) ELISA was used to measure the ability of sequential overlapping 15-mer synthetic peptides from human VISTA to block binding of an antibody to full length VISTA-ECD immobilized on a microtiter plate. Nickel coated ELISA plates were blocked with BSA and bound with 0.5 μg/mL VISTA protein (Human recombinant, produced in HEK 293 cells, SinoBiologics) for 1 h at room temperature. Anti-VISTA antibodies were diluted to 2-fold their EC₅₀ concentrations and pre-incubated at a 1:1 ratio with either 2 μg/mL or 20 μg/mL peptide solution in 0.5% BSA in PBST for 30 min at room temperature. Peptide-bound antibody solutions (50 μL) were added to each microtiter well and incubated for 1 h at room temperature, after which the ELISA plate was washed and processed as described above for standard ELISAs. Data are expressed as a percent reduction in ELISA signal obtained without preincubation with peptide solution.
# Antibody No. 465.1 [2] = target: T1, Antibody No. 465.1; test: as above
# T1 construct: also called Ab No. 465.1
# Protocol: as §1
# Antibody No. 245.1 [3] = test: as above
# Protocol: as §1
# VSTB174 [4] = test: peptide blocking ELISA on plate-bound VISTA, peptide 20 ug/mL
# Protocol: as §1
# Antibody No. 465.1 [5] = target: T1, Antibody No. 465.1; test: as above
# Protocol: as §1
# Antibody No. 245.1 [6] = test: as above
# Protocol: as §1
binder,measurement,setting,value
B1,percent reduction in ELISA signal,VSTB174 [1],22%
same,percent reduction in ELISA signal,Antibody No. 465.1 [2],0%
same,percent reduction in ELISA signal,Antibody No. 245.1 [3],8%
same,percent reduction in ELISA signal,VSTB174 [4],34%
same,percent reduction in ELISA signal,Antibody No. 465.1 [5],0%
same,percent reduction in ELISA signal,Antibody No. 245.1 [6],1%
B2,percent reduction in ELISA signal,VSTB174 [1],8%
same,percent reduction in ELISA signal,Antibody No. 465.1 [2],0%
same,percent reduction in ELISA signal,Antibody No. 245.1 [3],12%
same,percent reduction in ELISA signal,VSTB174 [4],30%
same,percent reduction in ELISA signal,Antibody No. 465.1 [5],26%
same,percent reduction in ELISA signal,Antibody No. 245.1 [6],26%
B3,percent reduction in ELISA signal,VSTB174 [1],9%
same,percent reduction in ELISA signal,Antibody No. 465.1 [2],0%
same,percent reduction in ELISA signal,Antibody No. 245.1 [3],11%
same,percent reduction in ELISA signal,VSTB174 [4],35%
same,percent reduction in ELISA signal,Antibody No. 465.1 [5],3%
same,percent reduction in ELISA signal,Antibody No. 245.1 [6],0%
B4,percent reduction in ELISA signal,VSTB174 [1],10%
same,percent reduction in ELISA signal,Antibody No. 465.1 [2],0%
same,percent reduction in ELISA signal,Antibody No. 245.1 [3],4%
same,percent reduction in ELISA signal,VSTB174 [4],14%
same,percent reduction in ELISA signal,Antibody No. 465.1 [5],8%
same,percent reduction in ELISA signal,Antibody No. 245.1 [6],6%
B5,percent reduction in ELISA signal,VSTB174 [1],20%
same,percent reduction in ELISA signal,Antibody No. 465.1 [2],11%
same,percent reduction in ELISA signal,Antibody No. 245.1 [3],1%
same,percent reduction in ELISA signal,VSTB174 [4],79%
same,percent reduction in ELISA signal,Antibody No. 465.1 [5],43%
same,percent reduction in ELISA signal,Antibody No. 245.1 [6],66%
B6,percent reduction in ELISA signal,VSTB174 [1],18%
same,percent reduction in ELISA signal,Antibody No. 465.1 [2],0%
same,percent reduction in ELISA signal,Antibody No. 245.1 [3],0%
same,percent reduction in ELISA signal,VSTB174 [4],75%
same,percent reduction in ELISA signal,Antibody No. 465.1 [5],41%
same,percent reduction in ELISA signal,Antibody No. 245.1 [6],34%
B7,percent reduction in ELISA signal,VSTB174 [1],26%
same,percent reduction in ELISA signal,Antibody No. 465.1 [2],15%
same,percent reduction in ELISA signal,Antibody No. 245.1 [3],3%
same,percent reduction in ELISA signal,VSTB174 [4],81%
same,percent reduction in ELISA signal,Antibody No. 465.1 [5],36%
same,percent reduction in ELISA signal,Antibody No. 245.1 [6],57%
B8,percent reduction in ELISA signal,VSTB174 [1],0%
same,percent reduction in ELISA signal,Antibody No. 465.1 [2],3%
same,percent reduction in ELISA signal,Antibody No. 245.1 [3],4%
same,percent reduction in ELISA signal,VSTB174 [4],0%
same,percent reduction in ELISA signal,Antibody No. 465.1 [5],10%
same,percent reduction in ELISA signal,Antibody No. 245.1 [6],0%
B9,percent reduction in ELISA signal,VSTB174 [1],8%
same,percent reduction in ELISA signal,Antibody No. 465.1 [2],0%
same,percent reduction in ELISA signal,Antibody No. 245.1 [3],1%
same,percent reduction in ELISA signal,VSTB174 [4],3%
same,percent reduction in ELISA signal,Antibody No. 465.1 [5],1%
same,percent reduction in ELISA signal,Antibody No. 245.1 [6],9%
B10,percent reduction in ELISA signal,VSTB174 [1],2%
same,percent reduction in ELISA signal,Antibody No. 465.1 [2],0%
same,percent reduction in ELISA signal,Antibody No. 245.1 [3],0%
same,percent reduction in ELISA signal,VSTB174 [4],0%
same,percent reduction in ELISA signal,Antibody No. 465.1 [5],4%
same,percent reduction in ELISA signal,Antibody No. 245.1 [6],0%
B11,percent reduction in ELISA signal,VSTB174 [1],10%
same,percent reduction in ELISA signal,Antibody No. 465.1 [2],0%
same,percent reduction in ELISA signal,Antibody No. 245.1 [3],0%
same,percent reduction in ELISA signal,VSTB174 [4],28%
same,percent reduction in ELISA signal,Antibody No. 465.1 [5],0%
same,percent reduction in ELISA signal,Antibody No. 245.1 [6],14%
B12,percent reduction in ELISA signal,VSTB174 [1],31%
same,percent reduction in ELISA signal,Antibody No. 465.1 [2],2%
same,percent reduction in ELISA signal,Antibody No. 245.1 [3],9%
same,percent reduction in ELISA signal,VSTB174 [4],67%
same,percent reduction in ELISA signal,Antibody No. 465.1 [5],36%
same,percent reduction in ELISA signal,Antibody No. 245.1 [6],37%
B13,percent reduction in ELISA signal,VSTB174 [1],10%
same,percent reduction in ELISA signal,Antibody No. 465.1 [2],0%
same,percent reduction in ELISA signal,Antibody No. 245.1 [3],3%
same,percent reduction in ELISA signal,VSTB174 [4],25%
same,percent reduction in ELISA signal,Antibody No. 465.1 [5],4%
same,percent reduction in ELISA signal,Antibody No. 245.1 [6],9%
B14,percent reduction in ELISA signal,VSTB174 [1],10%
same,percent reduction in ELISA signal,Antibody No. 465.1 [2],3%
same,percent reduction in ELISA signal,Antibody No. 245.1 [3],0%
same,percent reduction in ELISA signal,VSTB174 [4],28%
same,percent reduction in ELISA signal,Antibody No. 465.1 [5],4%
same,percent reduction in ELISA signal,Antibody No. 245.1 [6],9%
B15,percent reduction in ELISA signal,VSTB174 [1],15%
same,percent reduction in ELISA signal,Antibody No. 465.1 [2],0%
same,percent reduction in ELISA signal,Antibody No. 245.1 [3],10%
same,percent reduction in ELISA signal,VSTB174 [4],38%
same,percent reduction in ELISA signal,Antibody No. 465.1 [5],22%
same,percent reduction in ELISA signal,Antibody No. 245.1 [6],4%
B16,percent reduction in ELISA signal,VSTB174 [1],0%
same,percent reduction in ELISA signal,Antibody No. 465.1 [2],2%
same,percent reduction in ELISA signal,Antibody No. 245.1 [3],0%
same,percent reduction in ELISA signal,VSTB174 [4],37%
same,percent reduction in ELISA signal,Antibody No. 465.1 [5],7%
same,percent reduction in ELISA signal,Antibody No. 245.1 [6],3%
B17,percent reduction in ELISA signal,VSTB174 [1],14%
same,percent reduction in ELISA signal,Antibody No. 465.1 [2],0%
same,percent reduction in ELISA signal,Antibody No. 245.1 [3],7%
same,percent reduction in ELISA signal,VSTB174 [4],14%
same,percent reduction in ELISA signal,Antibody No. 465.1 [5],12%
same,percent reduction in ELISA signal,Antibody No. 245.1 [6],9%
B18,percent reduction in ELISA signal,VSTB174 [1],52%
same,percent reduction in ELISA signal,Antibody No. 465.1 [2],9%
same,percent reduction in ELISA signal,Antibody No. 245.1 [3],20%
same,percent reduction in ELISA signal,VSTB174 [4],89%
same,percent reduction in ELISA signal,Antibody No. 465.1 [5],55%
same,percent reduction in ELISA signal,Antibody No. 245.1 [6],62%
B19,percent reduction in ELISA signal,VSTB174 [1],17%
same,percent reduction in ELISA signal,Antibody No. 465.1 [2],0%
same,percent reduction in ELISA signal,Antibody No. 245.1 [3],3%
same,percent reduction in ELISA signal,VSTB174 [4],32%
same,percent reduction in ELISA signal,Antibody No. 465.1 [5],4%
same,percent reduction in ELISA signal,Antibody No. 245.1 [6],3%
B20,percent reduction in ELISA signal,VSTB174 [1],20%
same,percent reduction in ELISA signal,Antibody No. 465.1 [2],0%
same,percent reduction in ELISA signal,Antibody No. 245.1 [3],23%
same,percent reduction in ELISA signal,VSTB174 [4],42%
same,percent reduction in ELISA signal,Antibody No. 465.1 [5],24%
same,percent reduction in ELISA signal,Antibody No. 245.1 [6],28%
B21,percent reduction in ELISA signal,VSTB174 [1],5%
same,percent reduction in ELISA signal,Antibody No. 465.1 [2],0%
same,percent reduction in ELISA signal,Antibody No. 245.1 [3],9%
same,percent reduction in ELISA signal,VSTB174 [4],32%
same,percent reduction in ELISA signal,Antibody No. 465.1 [5],16%
same,percent reduction in ELISA signal,Antibody No. 245.1 [6],25%
B22,percent reduction in ELISA signal,VSTB174 [1],21%
same,percent reduction in ELISA signal,Antibody No. 465.1 [2],8%
same,percent reduction in ELISA signal,Antibody No. 245.1 [3],13%
same,percent reduction in ELISA signal,VSTB174 [4],46%
same,percent reduction in ELISA signal,Antibody No. 465.1 [5],7%
same,percent reduction in ELISA signal,Antibody No. 245.1 [6],26%
B23,percent reduction in ELISA signal,VSTB174 [1],1%
same,percent reduction in ELISA signal,Antibody No. 465.1 [2],5%
same,percent reduction in ELISA signal,Antibody No. 245.1 [3],2%
same,percent reduction in ELISA signal,VSTB174 [4],18%
same,percent reduction in ELISA signal,Antibody No. 465.1 [5],7%
same,percent reduction in ELISA signal,Antibody No. 245.1 [6],0%
